One may read the Kd as the free concentration of one partner at which half of the binding sites on the other are occupied at equilibrium, for simple one-to-one binding. A low value points to tighter binding. A word on the EC50: it is the concentration needed to bring the measured effect to its halfway point.

Assay [1] concerns the target T1, Blys (human, UniProt Q9Y275 134-285, limits assumed). Briefly: cell-based or functional assay.
The target in assay [2] is T1, Blys. Briefly: SPR, Biacore T200, antibody captured by goat anti-human IgG on a CM5 chip, 300 nM BLYS as analyte. For orientation: In SPR one partner is held on a chip, and binding of the other changes the refractive index at the surface.
Assay [3] addresses T2, Blys-His融合蛋白(含6×His标签) (human, UniProt Q9Y275 134-285).
T2 construct: Expressed in CHO-K1 cells and purified on a Ni column; The background says that Blys acts as a homotrimer and that residues 133-285 are the main functional region; also called 重组人BLYS; not shown: 6×His tag
Description: ELISA, Blys-His coated, 1:4 serial dilutions of antibody, mouse anti-human IgG-HRP. For orientation: An ELISA detects its analyte on a solid surface through an enzyme-linked reagent.

B1: Belimumab (antibody, V domains shown)
VH: QVQLQQSGAEVKKPGSSVRVSCKASGGTFNNNAINWVRQAPGQGLEWMGGIIPMFGTAKYSQNFQGRVAITADESTGTASMELSSLRSEDTAVYYCARSRDLLLFPHHALSPWGRGTMVTVSS
VL: SSELTQDPAVSVALGQTVRVTCQGDSLRSYYASWYQQKPGQAPVLVIYGKNNRPSGIPDRFSGSSSGNTASLTITGAQAEDEADYYCSSRDSSGNHWVFGGGTELTVLG
On to B1, for which the “抑制Blys刺激的鼠脾细胞增殖 IC50” value in assay [1] came to 8.25 ng/mL. The same molecule gave a Kd in assay [2] of 1.37 nM.

B2: NMB01 (antibody, V domains shown)
VH: EVQLVESGGGLVQPGGSLRLSCAASGFTFSTFGMNWVRQAPGKGLEWVSYISSGSSTIYYADTVKGRFTISRDNAKNSLYLQMNSLRAEDTAVYYCARLGDPLLRPKGNAMDYWGQGTLVTVSS
VL: DIQMTQSPSSLSASVGDRVTITCLASQTIGTWLAWYQQKPGKAPKLLIYAATRKADGVPSRFSGSGSGTDFTLTISSLQPEDFATYYCQQLYSSPWTFGGGTKVEIK
In turn, B2 came in with a concentration for a half-maximal effect (EC50) in assay [3] of 0.0292 nM.

(Values after CN105061596A (JIANGSU NOVOMAB BIOPHARMACEUTICAL INC, dated 2015).)
